{"source": "paper PMC8211829", "about": "(Biochimica et biophysica acta. Biomembranes, 2021)", "molecular_target": "the molecule itself", "assay": "cross-linking", "data": [{"protein": "apoE(201–299) single Cys variant S223C (domain or fragment) QPLQERAQAWGERLRARMEEMGCRTRDRLDEVKEQVAEVRAKLEEQAQQIRLQAEAFQARLKSWFEPLVEDMQRQWAGLVEKVQAAVGTSAAPVPSDNH", "values": [{"measurement": "binding result", "value": "binds"}]}, {"protein": "apoE(201–299) single Cys variant at E255 (domain or fragment) QPLQERAQAWGERLRARMEEMGSRTRDRLDEVKEQVAEVRAKLEEQAQQIRLQACAFQARLKSWFEPLVEDMQRQWAGLVEKVQAAVGTSAAPVPSDNH", "values": [{"measurement": "binding result", "value": "binds"}]}]}
